In article PMC6847465 (Nucleic Acids Research, 2019):
Ends that are not written are not given here. * marks the point of attachment. Biotin = O=C1N[C@H]2[C@H](CS[C@H]2CCCCC(=O)*)N1

Target: GST–BRCA1–BRCT (UniProt P38398 1582-1863)
Experiment: pull-down

Sequence of GST–BRCA1–BRCT (P38398 1582-1863): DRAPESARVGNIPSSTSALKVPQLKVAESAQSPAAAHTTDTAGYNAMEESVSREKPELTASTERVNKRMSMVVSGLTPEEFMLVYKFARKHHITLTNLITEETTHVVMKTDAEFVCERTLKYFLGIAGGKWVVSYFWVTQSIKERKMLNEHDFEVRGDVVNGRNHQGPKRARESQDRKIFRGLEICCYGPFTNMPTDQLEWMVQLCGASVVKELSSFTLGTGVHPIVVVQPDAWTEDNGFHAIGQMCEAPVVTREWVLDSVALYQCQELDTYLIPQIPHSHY

- binding result: binds
Binder: Biotin-KHDAIMDGASPDYVLV [biotinylated CSB peptide without S1276 phosphorylation]
